The text below walks through data of the supplement of paper PMC5998384.

Data set [1] relates to HeLa Kyoto. Put plainly: thermal stability score vs G1/S (z-score of summed log2 fold changes over temperatures); higher = more thermally stable than in G1/S.
The test system of data set [2] is HeLa Kyoto. Briefly: solubility change mitosis vs G1/S (difference of NP-40 vs SDS log2 ratios) (log2 ratio difference); higher = more soluble in mitosis.
The test system of data set [3] is HeLa Kyoto. Briefly: solubility in G1/S (NP-40 vs SDS abundance) (log2 ratio); higher = more soluble. To be noted: cell cycle stage: G1/S.
The test system of data set [4] is HeLa Kyoto. Briefly: melting temperature (median over replicates), in situ; higher = more thermally stable.
Setting [5] is: cell cycle stage: early G1 (4.5 h after nocodazole release).
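For melting temperature (median over replicates), in situ in this document: HeLa Kyoto cells synchronized by double thymidine or nocodazole block, proteins quantified by TMT10plex mass spectrometry, three independent biological replicates.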
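For solubility change mitosis vs G1/S (difference of NP-40 vs SDS log2 ratios) in this document: synchronized HeLa Kyoto cells (double thymidine block for G1/S, nocodazole release for mitosis), protein amounts in NP-40 versus SDS lysates quantified by mass spectrometry, three biological replicates.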
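For solubility in G1/S (NP-40 vs SDS abundance) in this document: HeLa Kyoto cells arrested at G1/S by double thymidine block, proteins quantified by TMT10plex mass spectrometry in mild NP-40 versus SDS extracts, three biological replicates.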
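For thermal stability score vs G1/S (z-score of summed log2 fold changes over temperatures) in this document: synchronized HeLa Kyoto cells, proteins quantified by TMT10plex mass spectrometry, three biological replicates, mitosis taken 0.5 h after nocodazole release, G1/S directly after double thymidine block.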

As to “MARAGPAWLLLAIWVVLPSWLSSAKVSSLIERISDPKDLKKLLRTRNNVLVLYSKSEVAAENHLRLLSTVAQAVKGQGTICWVDCGDAESRKLCKKMKVDLSPKDKKVELFHYQDGAFHTEYNRAVTFKSIVAFLKDPKGPPLWEEDPGAKDVVHLDSEKDFRRLLKKEEKPLLIMFYAPWCSMCKRMMPHFQKAATQLRGHAVLAGMNVYSSEFENIKEEYSVRGFPTICYFEKGRFLFQYDNYGSTAEDIVEWLKNPQPPQPQVPETPWADEGGSVYHLTDEDFDQFVKEHSSVLVMFHAPWCGHCKKMKPEFEKAAEALHGEADSSGVLAAVDATVNKALAERFHISEFPTLKYFKNGEKYAVPVLRTKKKFLEWMQNPEAPPPPEPTWEEQQTSVLHLVGDNFRETLKKKKHTLVMFYAPWCPHCKKVIPHFTATADAFKDDRKIACAAVDCVKDKNQDLCQQEAVKGYPTFHYYHYGKFAEKYDSDRTELGFTNYIRALREGDHERLGKKKEEL [PDIA5]”, the thermal stability score in the data set on HeLa Kyoto [1] (setting [5]) was 2.7; with HeLa Kyoto [1] (cell cycle stage: mitosis), 2.84. For the same sequence, in the data set on HeLa Kyoto [2], the “solubility change mitosis (log2)” value is -0.0327. For the same sequence, the “solubility in G1/S (log2)” value in the data set with HeLa Kyoto [3] was -0.136. Also, the values for the melting temperature in the data set with HeLa Kyoto [4] (cell cycle stage: G1/S) and in the data set on HeLa Kyoto [4] (cell cycle stage: mitosis) were 53.8 °C and 54.5 °C, respectively.

As for “MAREKEMQEFTRSFFRGRPDLSTLTHSIVRRRYLAHSGRSHLEPEEKQALKRLVEEELLKMQVDEAASREDKLDLTKKGKRPPTPCSDPERKRFRFNSESESGSEASSPDYFGPPAKNGVAAEVSPAKEENPRRASKAVEESSDEERQRDLPAQRGEESSEEEEKGYKGKTRKKPVVKKQAPGKASVSRKQAREESEESEAEPVQRTAKKVEGNKGTKSLKESEQESEEEILAQKKEQREEEVEEEEKEEDEEKGDWKPRTRSNGRRKSAREERSCKQKSQAKRLLGDSDSEEEQKEAASSGDDSGRDREPPVQRKSEDRTQLKGGKRLSGSSEDEEDSGKGEPTAKGSRKMARLGSTSGEESDLEREVSDSEAGGGPQGERKNRSSKKSSRKGRTRSSSSSSDGSPEAKGGKAGSGRRGEDHPAVMRLKRYIRACGAHRNYKKLLGSCCSHKERLSILRAELEALGMKGTPSLGKCRALKEQREEAAEVASLDVANIISGSGRPRRRTAWNPLGEAAPPGELYRRTLDSDEERPRPAPPDWSHMRGIISSDGESN [HIRIP3]”, the thermal stability score in the data set with HeLa Kyoto [1] (setting [5]) was found to be 0.379; in the data set with HeLa Kyoto [1] (cell cycle stage: mitosis), 0.978. The “solubility change mitosis (log2)” value in the data set on HeLa Kyoto [2] was determined as 0.398. For the same sequence, the “solubility in G1/S (log2)” value with HeLa Kyoto [3] worked out at 0.0105. For the same sequence, the melting temperature with HeLa Kyoto [4] (cell cycle stage: G1/S) is 53 °C; with HeLa Kyoto [4] (cell cycle stage: mitosis), 52.5 °C.

In the case of “MARELRALLLWGRRLRPLLRAPALAAVPGGKPILCPRRTTAQLGPRRNPAWSLQAGRLFSTQTAEDKEEPLHSIISSTESVQGSTSKHEFQAETKKLLDIVARSLYSEKEVFIRELISNASDALEKLRHKLVSDGQALPEMEIHLQTNAEKGTITIQDTGIGMTQEELVSNLGTIARSGSKAFLDALQNQAEASSKIIGQFGVGFYSAFMVADRVEVYSRSAAPGSLGYQWLSDGSGVFEIAEASGVRTGTKIIIHLKSDCKEFSSEARVRDVVTKYSNFVSFPLYLNGRRMNTLQAIWMMDPKDVREWQHEEFYRYVAQAHDKPRYTLHYKTDAPLNIRSIFYVPDMKPSMFDVSRELGSSVALYSRKVLIQTKATDILPKWLRFIRGVVDSEDIPLNLSRELLQESALIRKLRDVLQQRLIKFFIDQSKKDAEKYAKFFEDYGLFMREGIVTATEQEVKEDIAKLLRYESSALPSGQLTSLSEYASRMRAGTRNIYYLCAPNRHLAEHSPYYEAMKKKDTEVLFCFEQFDELTLLHLREFDKKKLISVETDIVVDHYKEEKFEDRSPAAECLSEKETEELMAWMRNVLGSRVTNVKVTLRLDTHPAMVTVLEMGAARHFLRMQQLAKTQEERAQLLQPTLEINPRHALIKKLNQLRASEPGLAQLLVDQIYENAMIAAGLVDDPRAMVGRLNELLVKALERH [TRAP1]”, the thermal stability score in the data set on HeLa Kyoto [1] (setting [5]) was 1.66; in the data set on HeLa Kyoto [1] (cell cycle stage: mitosis), -0.668. Further, in the data set with HeLa Kyoto [2], the “solubility change mitosis (log2)” value is -0.149. The “solubility in G1/S (log2)” value in the data set with HeLa Kyoto [3] is -0.0668. Also, the melting temperature in the data set with HeLa Kyoto [4] (cell cycle stage: G1/S) stood at 52.8 °C; in the data set on HeLa Kyoto [4] (cell cycle stage: mitosis) it was 52.7 °C.

In the case of “MARGSAVAWAALGPLLWGCALGLQGGMLYPQESPSRECKELDGLWSFRADFSDNRRRGFEEQWYRRPLWESGPTVDMPVPSSFNDISQDWRLRHFVGWVWYEREVILPERWTQDLRTRVVLRIGSAHSYAIVWVNGVDTLEHEGGYLPFEADISNLVQVGPLPSRLRITIAINNTLTPTTLPPGTIQYLTDTSKYPKGYFVQNTYFDFFNYAGLQRSVLLYTTPTTYIDDITVTTSVEQDSGLVNYQISVKGSNLFKLEVRLLDAENKVVANGTGTQGQLKVPGVSLWWPYLMHERPAYLYSLEVQLTAQTSLGPVSDFYTLPVGIRTVAVTKSQFLINGKPFYFHGVNKHEDADIRGKGFDWPLLVKDFNLLRWLGANAFRTSHYPYAEEVMQMCDRYGIVVIDECPGVGLALPQFFNNVSLHHHMQVMEEVVRRDKNHPAVVMWSVANEPASHLESAGYYLKMVIAHTKSLDPSRPVTFVSNSNYAADKGAPYVDVICLNSYYSWYHDYGHLELIQLQLATQFENWYKKYQKPIIQSEYGAETIAGFHQDPPLMFTEEYQKSLLEQYHLGLDQKRRKYVVGELIWNFADFMTEQSPTRVLGNKKGIFTRQRQPKSAAFLLRERYWKIANETRYPHSVAKSQCLENSLFT [GUSB]”, the figures for the thermal stability score in the data set with HeLa Kyoto [1] (setting [5]) and with HeLa Kyoto [1] (cell cycle stage: mitosis) were -0.942 and -0.838, respectively. The “solubility change mitosis (log2)” value in the data set with HeLa Kyoto [2] is -0.164. In addition, in the data set on HeLa Kyoto [3], the “solubility in G1/S (log2)” value is 0.259. Moreover, the melting temperature in the data set with HeLa Kyoto [4] (cell cycle stage: G1/S) is 56.4 °C; in the data set with HeLa Kyoto [4] (cell cycle stage: mitosis) it was 58 °C.

In the case of “MARSPGRAYALLLLLICFNVGSGLHLQVLSTRNENKLLPKHPHLVRQKRAWITAPVALREGEDLSKKNPIAKIHSDLAEERGLKITYKYTGKGITEPPFGIFVFNKDTGELNVTSILDREETPFFLLTGYALDARGNNVEKPLELRIKVLDINDNEPVFTQDVFVGSVEELSAAHTLVMKINATDADEPNTLNSKISYRIVSLEPAYPPVFYLNKDTGEIYTTSVTLDREEHSSYTLTVEARDGNGEVTDKPVKQAQVQIRILDVNDNIPVVENKVLEGMVEENQVNVEVTRIKVFDADEIGSDNWLANFTFASGNEGGYFHIETDAQTNEGIVTLIKEVDYEEMKNLDFSVIVANKAAFHKSIRSKYKPTPIPIKVKVKNVKEGIHFKSSVISIYVSESMDRSSKGQIIGNFQAFDEDTGLPAHARYVKLEDRDNWISVDSVTSEIKLAKLPDFESRYVQNGTYTVKIVAISEDYPRKTITGTVLINVEDINDNCPTLIEPVQTICHDAEYVNVTAEDLDGHPNSGPFSFSVIDKPPGMAEKWKIARQESTSVLLQQSEKKLGRSEIQFLISDNQGFSCPEKQVLTLTVCECLHGSGCREAQHDSYVGLGPAAIALMILAFLLLLLVPLLLLMCHCGKGAKGFTPIPGTIEMLHPWNNEGAPPEDKVVPSFLPVDQGGSLVGRNGVGGMAKEATMKGSSSASIVKGQHEMSEMDGRWEEHRSLLSGRATQFTGATGAIMTTETTKTARATGASRDMAGAQAAAVALNEEFLRNYFTDKAASYTEEDENHTAKDCLLVYSQEETESLNASIGCCSFIEGELDDRFLDDLGLKFKTLAEVCLGQKIDINKEIEQRQKPATETSMNTASHSLCEQTMVNSENTYSSGSSFPVPKSLQEANAEKVTQEIVTERSVSSRQAQKVATPLPDPMASRNVIATETSYVTGSTMPPTTVILGPSQPQSLIVTERVYAPASTLVDQPYANEGTVVVTERVIQPHGGGSNPLEGTQHLQDVPYVMVRERESFLAPSSGVQPTLAMPNIAVGQNVTVTERVLAPASTLQSSYQIPTENSMTARNTTVSGAGVPGPLPDFGLEESGHSNSTITTSSTRVTKHSTVQHSYS [DSG2]”, the figures for the thermal stability score in the data set with HeLa Kyoto [1] (setting [5]) and in the data set on HeLa Kyoto [1] (cell cycle stage: mitosis) were -1.15 and -1.27, respectively. The “solubility change mitosis (log2)” value with HeLa Kyoto [2] is -0.164. Besides, in the data set on HeLa Kyoto [3], the “solubility in G1/S (log2)” value was -0.504. Moreover, the melting temperature came to 55.1 °C in the data set on HeLa Kyoto [4] (cell cycle stage: G1/S) and 56 °C in the data set on HeLa Kyoto [4] (cell cycle stage: mitosis).

On to “MARSVRVLVDMDGVLADFEAGLLRGFRRRFPEEPHVPLEQRRGFLAREQYRALRPDLADKVASVYEAPGFFLDLEPIPGALDAVREMNDLPDTQVFICTSPLLKYHHCVGEKYRWVEQHLGPQFVERIILTRDKTVVLGDLLIDDKDTVRGQEETPSWEHILFTCCHNRHLVLPPTRRRLLSWSDNWREILDSKRGAAQRE [NT5C]”, for which the thermal stability score with HeLa Kyoto [1] (setting [5]) is -0.241; in the data set on HeLa Kyoto [1] (cell cycle stage: mitosis) it was -1.24. The “solubility change mitosis (log2)” value with HeLa Kyoto [2] is -0.172. Also, in the data set on HeLa Kyoto [3], the “solubility in G1/S (log2)” value is 0.0484. For the same sequence, the melting temperature in the data set on HeLa Kyoto [4] (cell cycle stage: G1/S) amounted to 55.9 °C; with HeLa Kyoto [4] (cell cycle stage: mitosis), 57 °C.

In the case of “MARVAWGLLWLLLGSAGAQYEKYSFRGFPPEDLMPLAAAYGHALEQYEGESWRESARYLEAALRLHRLLRDSEAFCHANCSGPAPAAKPDPDGGRADEWACELRLFGRVLERAACLRRCKRTLPAFQVPYPPRQLLRDFQSRLPYQYLHYALFKANRLEKAVAAAYTFLQRNPKHELTAKYLNYYQGMLDVADESLTDLEAQPYEAVFLRAVKLYNSGDFRSSTEDMERALSEYLAVFARCLAGCEGAHEQVDFKDFYPAIADLFAESLQCKVDCEANLTPNVGGYFVDKFVATMYHYLQFAYYKLNDVRQAARSAASYMLFDPKDSVMQQNLVYYRFHRARWGLEEEDFQPREEAMLYHNQTAELRELLEFTHMYLQSDDEMELEETEPPLEPEDALSDAEFEGEGDYEEGMYADWWQEPDAKGDEAEAEPEPELA [P3H4]”, the values for the thermal stability score with HeLa Kyoto [1] (setting [5]) and with HeLa Kyoto [1] (cell cycle stage: mitosis) were 0.153 and 0.25, respectively. Moreover, the “solubility change mitosis (log2)” value in the data set with HeLa Kyoto [2] was -0.0349. The “solubility in G1/S (log2)” value with HeLa Kyoto [3] was -0.293. In addition, the melting temperature is 53.2 °C in the data set on HeLa Kyoto [4] (cell cycle stage: G1/S) and 53.6 °C in the data set with HeLa Kyoto [4] (cell cycle stage: mitosis).
